Article PMC9342958

Target: CARD9 CARD fused to mEos3.1 (human)
Assay: FRET or BRET; DAmFRET (Distributed Amphifluoric FRET) in living S. cerevisiae: protein fused to mEos3.1, GAL promoter, about 16 hr in galactose, part of mEos3.1 photoconverted to the acceptor form, AmFRET against expression level by flow cytometry

threshold concentration of polymerisation: 100 µM
Substance: CARD9 CARD fused to mEos3.1 (domain or fragment)
